Laboratory results as given in patent publication US20220282217A1, “COMPOSITIONS AND METHODS FOR PREPARING T CELL COMPOSITIONS AND USES THEREOF” (priority 2019, published 2022).

Legend:
Details in all cases: remark: other sources report otherwise
HLA-A02.01 (human) [1] = test: pMHC-I complex dissociation at 37 C, 125I-b2m, half-life
HLA-B07.02 (human) [2] = test: as above
HLA-A02.01 (human) [3] = test: competition vs radiolabeled reference peptide on purified MHC I, gel filtration
HLA-B07.02 (human) [4] = test: as above
HLA-A24.02 (human) [5] = test: pMHC-I complex dissociation at 37 C, 125I-b2m, half-life
HLA-A24.02 (human) [6] = test: competition vs radiolabeled reference peptide on purified MHC I, gel filtration
[7] = target: HLA class I molecule A02.01; test: pMHC-I dissociation half-life, 125I-b2m
[8] = target: HLA class I molecule B08.01; test: pMHC-I dissociation half-life, 125I-b2m
[9] = target: HLA class I molecule A02.01; test: competition with radiolabeled reference peptide on purified MHC I
[10] = target: HLA class I molecule A03.01; test: pMHC-I dissociation half-life, 125I-b2m
[11] = target: HLA class I molecule A03.01; test: competition with radiolabeled reference peptide on purified MHC I
HLA-A02.01 (human) [12] = test: pMHC-I dissociation half-life, 125I-b2m
HLA-A24.02 (human) [13] = test: pMHC-I dissociation half-life, 125I-b2m
HLA-A02.01 (human) [14] = test: competition with radiolabeled reference peptide, purified MHC I
HLA-A24.02 (human) [15] = test: as above
[16] = target: T1, HLA-A02.01 class I MHC molecule (prepared complex) (human); test: dissociation of peptide-MHC-I complex at 37 C, 125I-labelled b2m, scintillation
[17] = target: HLA-A24.02 class I MHC molecule (prepared complex) (human); test: as above
[18] = target: T1, HLA-A02.01 class I MHC molecule …; test: displacement of radiolabeled reference peptide from class I MHC, gel filtration; 'Affinity (nM)'

## SLLNYLREM
HLA-A02.01 (human) [1]
  Stability (T1/2 (h)): 3 h
HLA-B07.02 (human) [2]
  Stability (T1/2 (h)): 0 h
HLA-A02.01 (human) [3]
  IC50: 87 nM
HLA-B07.02 (human) [4]
  IC50: 1110 nM

## MANGSLLNYL
HLA-A02.01 (human) [1]
  Stability (T1/2 (h)): 0 h
HLA-B07.02 (human) [2]
  Stability (T1/2 (h)): 0 h
HLA-A02.01 (human) [3]
  IC50: 1080 nM
HLA-B07.02 (human) [4]
  IC50: 17700 nM

## YMANGSLLN
HLA-A02.01 (human) [1]
  Stability (T1/2 (h)): 0 h
HLA-A02.01 (human) [3]
  IC50: 4440 nM

## SVCFFFFSV
HLA-A02.01 (human) [1]
  Stability (T1/2 (h)): 9.4 h
HLA-A02.01 (human) [3]
  IC50: 175 nM

## MQLMPFGCLL
HLA-A02.01 (human) [1]
  Stability (T1/2 (h)): 0.4 h
HLA-A24.02 (human) [5]
  Stability (T1/2 (h)): 0 h
HLA-A02.01 (human) [3]
  IC50: 20 nM
HLA-A24.02 (human) [6]
  IC50: 23600 nM

## MQLMPFGCL
HLA-A02.01 (human) [1]
  Stability (T1/2 (h)): 0.4 h
HLA-B07.02 (human) [2]
  Stability (T1/2 (h)): 0 h
HLA-B07.02 (human) [4]
  IC50: 2270 nM

## QLIMQLMPF […, listing 1 of 2 here]
HLA-A02.01 (human) [1]
  Stability (T1/2 (h)): 0.3 h
HLA-A24.02 (human) [5]
  Stability (T1/2 (h)): 0.4 h
HLA-A02.01 (human) [3]
  IC50: 227 nM

## IMQLMPFGCL
HLA-A02.01 (human) [1]
  Stability (T1/2 (h)): 0.5 h
HLA-A24.02 (human) [5]
  Stability (T1/2 (h)): 0 h
HLA-A02.01 (human) [3]
  IC50: 837 nM
HLA-A24.02 (human) [6]
  IC50: 18100 nM

## IMQLMPFGC […, listing 1 of 2 here]
HLA-A02.01 (human) [1]
  Stability (T1/2 (h)): 0.4 h
HLA-A02.01 (human) [3]
  IC50: 1610 nM

## LIMQLMPFG […, listing 1 of 2 here]
HLA-A02.01 (human) [1]
  Stability (T1/2 (h)): 0 h
HLA-A02.01 (human) [3]
  IC50: 3510 nM

## VQLIMQLMPF
HLA-A02.01 (human) [1]
  Stability (T1/2 (h)): 0 h
HLA-A24.02 (human) [5]
  Stability (T1/2 (h)): 0 h
HLA-A02.01 (human) [3]
  IC50: 5490 nM
HLA-A24.02 (human) [6]
  IC50: 4560 nM

## QLIMQLMPFG […, listing 1 of 2 here]
HLA-A02.01 (human) [1]
  Stability (T1/2 (h)): 0 h
HLA-A02.01 (human) [3]
  IC50: 5930 nM

## STVQLIMQL […, listing 1 of 2 here]
HLA-A02.01 (human) [1]
  Stability (T1/2 (h)): 0 h
HLA-A02.01 (human) [3]
  IC50: 8540 nM

## PLYGLLLEML
HLA-A02.01 (human) [1]
  Stability (T1/2 (h)): 0 h
HLA-A24.02 (human) [5]
  Stability (T1/2 (h)): 6.3 h
HLA-A02.01 (human) [3]
  IC50: 797 nM
HLA-A24.02 (human) [6]
  IC50: 444 nM

## FLPSTLKSL
HLA-A24.02 (human) [5]
  Stability (T1/2 (h)): 1 h
HLA-A24.02 (human) [6]
  IC50: 995 nM

## YTLDVLERC
HLA-A02.01 (human) [1]
  Stability (T1/2 (h)): 6.6 h

## FQNGKMALSA
[7]
  Stability (T1/2 (h)): 0 h
[8]
  Stability (T1/2 (h)): 0 h
[9]
  IC50: 6160 nM

## ALQPLQPHA
[9]
  IC50: 604 nM

## YMFLKAESKI
[7]
  Stability (T1/2 (h)): 0.6 h
[10]
  Stability (T1/2 (h)): 0 h
[8]
  Stability (T1/2 (h)): 0.4 h
[11]
  IC50: 21100 nM

## FLQEQYHEA
[7]
  Stability (T1/2 (h)): 9.5 h
[8]
  Stability (T1/2 (h)): 0 h

## VMAGLGSPYV
[7]
  Stability (T1/2 (h)): 2.9 h
[10]
  Stability (T1/2 (h)): 0 h
[9]
  IC50: 102 nM
[11]
  IC50: 11200 nM

## WLHKRGKYI
HLA-A02.01 (human) [1]
  Stability (T1/2 (h)): 1.2 h
HLA-B07.02 (human) [2]
  Stability (T1/2 (h)): 0 h
HLA-A02.01 (human) [3]
  IC50: 1250 nM
HLA-B07.02 (human) [4]
  IC50: 2650 nM

## RVAKIADFGM
HLA-A02.01 (human) [1]
  Stability (T1/2 (h)): 0.5 h
HLA-B07.02 (human) [2]
  Stability (T1/2 (h)): 0.2 h
HLA-A02.01 (human) [3]
  IC50: 125 nM
HLA-B07.02 (human) [4]
  IC50: 9720 nM

## VLHECNSLYI
[7]
  Stability (T1/2 (h)): 5.1 h
[10]
  Stability (T1/2 (h)): 0 h
[9]
  IC50: 10 nM
[11]
  IC50: 10500 nM

## SLPRFILMEL
HLA-A02.01 (human) [1]
  Stability (T1/2 (h)): 0.5 h
HLA-A24.02 (human) [5]
  Stability (T1/2 (h)): 0.2 h
HLA-B07.02 (human) [2]
  Stability (T1/2 (h)): 0.4 h
HLA-A02.01 (human) [3]
  IC50: 26 nM
HLA-A24.02 (human) [6]
  IC50: 2770 nM
HLA-B07.02 (human) [4]
  IC50: 583 nM

## FLLALWECSL
[7]
  Stability (T1/2 (h)): 10.8 h
[8]
  Stability (T1/2 (h)): 0 h

## LIVSRTLLL
[9]
  IC50: 174 nM

## LQSLPRFILM
HLA-A02.01 (human) [1]
  Stability (T1/2 (h)): 0 h
HLA-A02.01 (human) [3]
  IC50: 413 nM

## TQLARFFPI
HLA-A02.01 (human) [12]
  Stability (T1/2 (h)): 0 h
HLA-A24.02 (human) [13]
  Stability (T1/2 (h)): 0 h
HLA-A02.01 (human) [14]
  IC50: 19 nM
HLA-A24.02 (human) [15]
  IC50: 52 nM

## MALNSEALSV
HLA-A02.01 (human) [12]
  Stability (T1/2 (h)): 0.7 h
HLA-A02.01 (human) [14]
  IC50: 129 nM

## WMTETLFDI
HLA-A02.01 (human) [12]
  Stability (T1/2 (h)): 4 h
HLA-A24.02 (human) [13]
  Stability (T1/2 (h)): 0 h
HLA-A02.01 (human) [14]
  IC50: 14 nM
HLA-A24.02 (human) [15]
  IC50: 713 nM

## SMNRRPILTI
HLA-A02.01 (human) [12]
  Stability (T1/2 (h)): 0.3 h
HLA-A24.02 (human) [13]
  Stability (T1/2 (h)): 0 h
HLA-A02.01 (human) [14]
  IC50: 1200 nM
HLA-A24.02 (human) [15]
  IC50: 16300 nM

## CMGSMNRRPI
HLA-A02.01 (human) [12]
  Stability (T1/2 (h)): 0 h
HLA-A02.01 (human) [14]
  IC50: 1990 nM

## NQRPILTII
HLA-A02.01 (human) [12]
  Stability (T1/2 (h)): 0 h
HLA-A02.01 (human) [14]
  IC50: 9610 nM

## GMNWRPILTI
HLA-A02.01 (human) [12]
  Stability (T1/2 (h)): 0.5 h
HLA-A02.01 (human) [14]
  IC50: 282 nM

## CMGGMNWRPI
HLA-A02.01 (human) [12]
  Stability (T1/2 (h)): 0.4 h
HLA-A24.02 (human) [13]
  Stability (T1/2 (h)): 0 h
HLA-A02.01 (human) [14]
  IC50: 346 nM
HLA-A24.02 (human) [15]
  IC50: 4450 nM

## MNWRPILTI
HLA-A02.01 (human) [12]
  Stability (T1/2 (h)): 3.8 h
HLA-A24.02 (human) [13]
  Stability (T1/2 (h)): 0.2 h
HLA-A02.01 (human) [14]
  IC50: 516 nM
HLA-A24.02 (human) [15]
  IC50: 6980 nM

## LVVVGACGV
HLA-A02.01 (human) [12]
  Measured stability: 0.6 h
HLA-A02.01 (human) [14]
  Measured Affinity: 667 nM

## LVVVGADGV
HLA-A02.01 (human) [12]
  Measured stability: 0 h
HLA-A02.01 (human) [14]
  Measured Affinity: 977 nM

## LVVVGAVGV
HLA-A02.01 (human) [12]
  Measured stability: 0.6 h

## QLIMQLMPF [EGFR_T790M peptide …, listing 2 of 2 here]
[16]
  Stability (half-life (hr.)): 20.4 min
[17]
  Stability (half-life (hr.)): 22.1 min
[18]
  IC50: 193 nM

## IMQLMPFGC [EGFR_T790M peptide …, listing 2 of 2 here]
[16]
  Stability (half-life (hr.)): 22.2 min
[18]
  IC50: 1210 nM

## LIMQLMPFG [EGFR_T790M peptide …, listing 2 of 2 here]
[16]
  Stability (half-life (hr.)): 0 min
[18]
  IC50: 3340 nM

## QLIMQLMPFG [EGFR_T790M peptide …, listing 2 of 2 here]
[16]
  Stability (half-life (hr.)): 0 min
[18]
  IC50: 5210 nM

## STVQLIMQL [EGFR_T790M peptide …, listing 2 of 2 here]
[16]
  Stability (half-life (hr.)): 0 min
[18]
  IC50: 7260 nM

## LTINKEEAL
HLA-A02.01 (human) [1]
  Stability (T1/2 (h)): 0 h
HLA-A02.01 (human) [3]
  IC50: 4410 nM
